The values that follow come from patent EP4741426A1 (Leto Laboratories Co., Ltd, dated 2026).

For this test, the target named is T1, Fc-fused CD215 fragment.
T1 construct: also called CD215 fragment in L-unit (fused with hIgG4Fc); CD215 fragment fused with Fc
The experiment in a line: sandwich ELISA of the intact complex in mouse serum: one antibody captures the S-unit, the other detects the Fc portion. In general terms: An ELISA detects its analyte on a solid surface through an enzyme-linked reagent.

T1 sequence (chain, as listed by the source limits assumed): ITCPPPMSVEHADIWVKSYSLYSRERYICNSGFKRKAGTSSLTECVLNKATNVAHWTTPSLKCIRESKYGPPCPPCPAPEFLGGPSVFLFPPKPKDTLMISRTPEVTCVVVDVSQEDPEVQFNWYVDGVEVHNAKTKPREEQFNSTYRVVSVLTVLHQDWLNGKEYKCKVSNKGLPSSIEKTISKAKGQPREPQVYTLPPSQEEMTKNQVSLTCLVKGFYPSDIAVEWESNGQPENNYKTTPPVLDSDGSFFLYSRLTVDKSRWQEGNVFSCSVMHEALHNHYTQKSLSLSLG

B1: S-unit molecule (PM619) (ligand)
chain: APTSSSTKKTQLQLEHLLLDLQMILNGIQSMHIDATLYTESDVHPSCKVTAMKCFLLELQVISLESGDASIHDTVENLIILANNSLSSNGNVTESGCKECEELEEKNIVEFLNRFITFAQSIISTLT
notes: also called IL-2/15 chimera; modified IL-2 molecule
Take B1: the binding result was “binds”.
